Assay results: publication PMC12830992, “Insights into the self-assembly and interaction of sars-cov-2 fusion peptides with biomimetic plasma membranes” (Nature Communications, 2025)

B1: SARS-CoV-2 Spike fusion peptide FP2 (residues 835-856) (peptide)
peptide: KQYGDCLGDIAARDLICAQKFN
notes: Spike (S) glycoprotein of SARS-CoV-2, S2 subunit fusion domain, residues 835-856
B2: SARS-CoV-2 Spike fusion peptide FP1 (residues 816-837) (peptide)
peptide: SFIEDLLFNKVTLADAGFIKQY
notes: Spike (S) glycoprotein of SARS-CoV-2, S2 subunit fusion domain, residues 816-837

Target: the molecule itself
Experiment: atomic force microscopy (topography); peptide mixed at 5 mol% with plasma membrane lipid mixture, Langmuir-Blodgett monolayer compressed to 20 mN/m (liquid-expanded phase), transferred onto mica, imaged in air at room temperature, Peak Force mode

Row | Protein | binding result
1 | B1 | binds
2 | B2 | binds
